± gives the uncertainty stated by the source.
Test: self-splicing fitness, log relative to wild type (ln ratio); higher = more splicing; Tetrahymena group I intron in knt gene, E. coli kanamycin selection, DiMSum; sequences stand for … in CUCUCU…GGAGGGAAAAGUUAUCAGGCAUGCACCUGGUAGCUAGUCUUUAAACCAAUAGAUUGCAUCGGUUUAAAAGGCAAGACCGUCAAAUUGCGGGAAAGGGGUCAACAGCCGUUCAGUACCAAGUCUCAGGGGAAACUUUGAGAUGGCCUUGCAAAGGGUAUGGUAAUAAGCUGACGGACAUGGUCCUAACCACGCAGCCAAGUCCUAAGUCAACAGAUCUUCUGUUGAUAUGGAUGCAGUUCACAGACUAAAUGUCGGUCGGGGAAGAUGUAUUCUUCUCAUAAGAUAUAGUCGGACCUCUCCUUAAUGGGAGCUAGCGGAUGAAGUGAUGCAACACUGGAGCCGCUGGGAACUAAUUUGUAUGCGAAAGUAUAUUGAUUAGUUUUGGAGUACUCGUGGUCG
In short: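 DiMSum derived fitness as the error-weighted combination of fold changes across replicates, kanamycin versus no kanamycin, normalised to wild type. E. coli BL21(DE3) held the library, which randomised all eight P1ex-region intron nucleotides within the knt kanamycin-resistance gene on pET-22b(+). Six replicate transformations grew overnight at 37°C or 30°C on LB agar with or without 25 μg/mL kanamycin, also containing 100 μg/mL carbenicillin, 50 μM IPTG and 0.2% rhamnose, and pooled colonies were amplicon-sequenced on an Illumina HiSeq 2500.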

Sequence | self-splicing fitness (ln) (30 °C) | self-splicing fitness (ln) (37 °C)
GCUGAGCAAUAUUACGCAAU | -2.2 ± 0.26 | -1.9 ± 0.23
GCUGAGCAAUAUUACGCACA | -3.2 ± 0.39 | -3.05 ± 0.4
GCUGAGCAAUAUUACGCACU | -1.78 ± 0.17 | -0.125 ± 0.2
GCUGAGCAAUAUUACGCCGU | – | -0.103 ± 0.24
GCUGAGCAAUAUUACGCUUU | -2.42 ± 0.12 | -2.33 ± 0.18
GCUGAGCAAUAUUACGGAUA | -2.7 ± 0.16 | -1.8 ± 0.14
GCUGAGCAAUAUUACGGGCA | -1.76 ± 0.39 | -2.69 ± 0.36
GCUGAGCAAUAUUACGGGUG | -1.72 ± 0.087 | -1.29 ± 0.11
GCUGAGCAAUAUUACGGUCA | -2.69 ± 0.15 | -2.2 ± 0.14
GCUGAGCAAUAUUACGGUCU | -2.03 ± 0.2 | -1.65 ± 0.21
GCUGAGCAAUAUUACGUCAU | -3.26 ± 0.43 | -0.856 ± 0.3
GCUGAGCAAUAUUACGUGCA | -1.81 ± 0.19 | -0.958 ± 0.19
GCUGAGCAAUAUUACGUUAG | -2.86 ± 0.12 | -1.74 ± 0.17
GCUUAGCAAUAUUACGAAAG | -1.52 ± 0.13 | -0.485 ± 0.19
GCUUAGCAAUAUUACGAACC | -0.273 ± 0.23 | -0.336 ± 0.27
GCUUAGCAAUAUUACGAACG | -0.817 ± 0.099 | 0.062 ± 0.14
GCUUAGCAAUAUUACGAAGG | -0.605 ± 0.12 | -0.64 ± 0.21
GCUUAGCAAUAUUACGACGG | -1.89 ± 0.17 | -0.935 ± 0.18
GCUUAGCAAUAUUACGAGCU | -2.37 ± 0.19 | -1.89 ± 0.34
GCUUAGCAAUAUUACGAUAA | -2.12 ± 0.13 | -1.69 ± 0.12
GCUUAGCAAUAUUACGAUCU | -1.12 ± 0.12 | 0.155 ± 0.13
GCUUAGCAAUAUUACGCAAA | -2.95 ± 0.27 | -1.51 ± 0.2
GCUUAGCAAUAUUACGCAGG | -1.27 ± 0.19 | -2.97 ± 0.27
GCUUAGCAAUAUUACGCAUG | -2.06 ± 0.27 | -0.0774 ± 0.2

Sequence | self-splicing fitness (ln) (30 °C) | self-splicing fitness (ln) (37 °C)
GCUUAGCAAUAUUACGCCUA | -2.32 ± 0.28 | -1.05 ± 0.22
GCUUAGCAAUAUUACGCGCU | -2.33 ± 0.16 | -2.47 ± 0.21
GCUUAGCAAUAUUACGCGGG | -3.43 ± 0.22 | -2.82 ± 0.32
GCUUAGCAAUAUUACGCUUA | -0.849 ± 0.11 | -0.925 ± 0.14
GCUUAGCAAUAUUACGCUUC | -3.27 ± 0.47 | -1.54 ± 0.29
GCUUAGCAAUAUUACGGAAC | -0.644 ± 0.15 | -0.955 ± 0.14
GCUUAGCAAUAUUACGGAGA | -2.02 ± 0.14 | -0.596 ± 0.12
GCUUAGCAAUAUUACGGAGC | -2.97 ± 0.19 | -2.57 ± 0.41
GCUUAGCAAUAUUACGGAGG | -1.54 ± 0.1 | -0.819 ± 0.094
GCUUAGCAAUAUUACGGCAA | -2.6 ± 0.17 | -2.6 ± 0.17
GCUUAGCAAUAUUACGGCCG | -1.9 ± 0.34 | -1.48 ± 0.36
GCUUAGCAAUAUUACGGUAG | -2.53 ± 0.4 | –
GCUUAGCAAUAUUACGGUCU | -0.834 ± 0.083 | -0.0218 ± 0.11
GCUUAGCAAUAUUACGUAAU | -0.0411 ± 0.068 | 0.545 ± 0.083
GCUUAGCAAUAUUACGUCUG | -2.33 ± 0.16 | -1 ± 0.15
GCUUAGCAAUAUUACGUCUU | -1.1 ± 0.1 | -0.549 ± 0.12
GCUUAGCAAUAUUACGUUAU | -1.38 ± 0.093 | -0.881 ± 0.12
GCUUAGCAAUAUUACGUUGA | -2.65 ± 0.2 | -1.15 ± 0.16
GCUUAGCAAUAUUACGUUGG | -1.59 ± 0.1 | -0.814 ± 0.14
GGAAAGCAAUAUUACGAAGU | -2.79 ± 0.16 | -1.97 ± 0.18
GGAAAGCAAUAUUACGACAA | -1.71 ± 0.12 | -1 ± 0.14
GGAAAGCAAUAUUACGAGUU | -1.86 ± 0.1 | -1.08 ± 0.12
GGAAAGCAAUAUUACGCCUC | -1.14 ± 0.16 | -1.03 ± 0.19
GGAAAGCAAUAUUACGCCUU | -1.07 ± 0.29 | -1.29 ± 0.38

Reference: the supplement of paper PMC7877785
